Experimental findings from paper PMC13132546 (2026) are described below.

In assay [1] the target is T1, DYRK1A (recombinant, N-terminally biotinylated) (UniProt Q13627 1-763, biotin on the N-terminus (sortase labelling with a synthetic biotin-LPETGG peptide onto the N-terminal glycine left after TEV cleavage)). Nature of the assay: BLI. A general note: Biolayer interferometry detects binding as a change in optical thickness at a sensor tip.
The target of assay [2] is T1, DYRK1A (recombinant, N-terminally …). The assay is described as follows: BLI; steady-state response analysis.

B1: FAM53C (recombinant) (natural protein)
chain: MITLITEQLQKQTLDELKCTRFSISLPLPDHADISNCGNSFQLVSEGASWRGLPHCSCAEFQDSLNFSYHPSGLSLHLRPPSRGNSPKEQPFSQVLRPEPPDPEKLPVPPAPPSKRHCRSLSVPVDLSRWQPVWRPAPSKLWTPIKHRGSGGGGGPQVPHQSPPKRVSSLRFLQAPSASSQCAPAHRPYSPPFFSLALAQDSSRPCAASPQSGSWESDAESLSPCPPQRRFSLSPSLGPQASRFLPSARSSPASSPELPWRPRGLRNLPRSRSQPCDLDARKTGVKRRHEEDPRRLRPSLDFDKMNQKPYSGGLCLQETAREGSSISPPWFMACSPPPLSASCSPTGGSSQVLSESEEEEEGAVRWGRQALSKRTLCQRDFGDLDLNLIEEN
A word on the koff: it is the rate constant with which the complex falls apart. In general, Kd refers to the concentration at which binding is half-saturated. As to B1, the koff in assay [1] was 0.04 s⁻¹. Also, the Kd in assay [2] came to 3.3 µM.
